Reference: patent US8802414B2, “Methods and materials for reducing biofilms” (priority 2007, dated 2014)

Experiments:
Experiment in all cases: Microtiter plate biofilm detachment assay
[1] = tested on: pre-formed S. lugdunensis biofilms; assay type: cell-based, Staphylococcus lugdunensis; conditions: 2 hours at 37° C.; safranin OD492; 15 clinical isolates
Description: 40 mM sodium metaperiodate (NaIO4, Sigma-Aldrich) in water, 40 μg/mL purified recombinant dispersin B (obtained from Kane Biotech Inc., Winnipeg, Manitoba, Canada) in sodium phosphate buffer (50 mM sodium phosphate (pH 5.8), 100 mM NaCl), 100 μg/mL proteinase K (Roche Applied Science) in 10 mM Tris-HCl pH 7.5, 10 U/mL trypsin (Promega Corp., Madison, Wis.) in 10 mM Tris-HCl pH 7.5, 100 μg/mL chymotrypsin (Sigma-Aldrich) in 10 mM Tris-HCl pH 7.5, and 100 μg/mL thermolysin (Sigma-Aldrich) in 10 mM Tris-HCl pH 7.5 were tested for their ability to detach pre-formed S. lugdunensis biofilms from polystyrene microtiter plate wells. For certain experiments, proteinase K was inactivated by boiling for 40 minutes.
Biofilms grown in TSBgluc1% were formed in wells of microtiter plates and washed twice with deionized water, as described above for the microtiter plate biofilm formation assay. 100 μL of NaIO4, enzyme, or suitable control was carefully added so as not to mechanically detach biofilms on the bottoms of wells. Plates were incubated at 37° C. for 2 hours, and contents of wells were discarded and washed twice with deionized water. Plates were air-dried overnight, stained with 0.1% safranin for 1 minute, and processed as described above to quantify the amount of stained biofilm remaining after treatment, relative to treatment with the control reagent. Four wells were measured for each treatment condition. Assays were repeated two or three times on separate days with similar results.

[2] = tested on: pre-formed biofilms of S. carnosus TM300+pCN27; assay type: cell-based, Staphylococcus carnosus; conditions: 2 hours at 37° C.; safranin OD492
[3] = tested on: pre-formed biofilms of S. epidermidis RP62A; assay type: cell-based, Staphylococcus epidermidis; conditions: 2 hours at 37° C.; safranin OD492

Row | Molecule | biofilm detachment compared to buffer [1] | biofilm detachment compared to buffer [2] | biofilm detachment compared to buffer [3]
1 | thermolysin: protease (Sigma-Aldrich), 100 μg/mL in 10 mM Tris-HCl pH 7.5 (protein, UniProt P00800 233-548, looked up) Thermolysin: ITGTSTVGVGRGVLGDQKNINTTYSTYYYLQDNTRGNGIFTYDAKYRTTLPGSLWADADNQFFASYDAPAVDAHYYAGVTYDYYKNVHNRLSYDGNNAAIRSSVHYSQGYNNAFWNGSQMVYGDGDGQTFIPLSGGIDVVAHELTHAVTDYTAGLIYQNESGAINEAISDIFGTLVEFYANKNPDWEIGEDVYTPGISGDSLRSMSDPAKYGDPDHYSKRYTGTQDNGGVHINSGIINKAAYLISQGGTHYGVSVVGIGRDKLGKIFYRALTQYLTPTSNFSQLRAAAVQSATDLYGSTSQEVASVKQAFDAVGVK | detach S. lugdunensis biofilms selectively |  | 
2 | Proteinase K: protease (Roche Applied Science), 100 μg/mL in 10 mM Tris-HCl pH 7.5 (protein, UniProt P06873 106-384, looked up) Proteinase K: AAQTNAPWGLARISSTSPGTSTYYYDESAGQGSCVYVIDTGIEASHPEFEGRAQMVKTYYYSSRDGNGHGTHCAGTVGSRTYGVAKKTQLFGVKVLDDNGSGQYSTIIAGMDFVASDKNNRNCPKGVVASLSLGGGYSSSVNSAAARLQSSGVMVAVAAGNNNADARNYSPASEPSVCTVGASDRYDRRSSFSNYGSVLDIFGPGTSILSTWIGGSTRSISGTSMATPHVAGLAAYLMTLGKTTAASACRYIADTANKGDLSNIPFGTVNLLAYNNYQA | completely removed | no effect | no effect
3 | heat-inactivated proteinase K: proteinase K inactivated by boiling for 40 minutes (protein, UniProt P06873 106-384, looked up, heat-inactivated) Proteinase K: AAQTNAPWGLARISSTSPGTSTYYYDESAGQGSCVYVIDTGIEASHPEFEGRAQMVKTYYYSSRDGNGHGTHCAGTVGSRTYGVAKKTQLFGVKVLDDNGSGQYSTIIAGMDFVASDKNNRNCPKGVVASLSLGGGYSSSVNSAAARLQSSGVMVAVAAGNNNADARNYSPASEPSVCTVGASDRYDRRSSFSNYGSVLDIFGPGTSILSTWIGGSTRSISGTSMATPHVAGLAAYLMTLGKTTAASACRYIADTANKGDLSNIPFGTVNLLAYNNYQA | detachment effect was found to be abolished |  | 
